Assay results from EP4184166A1 (FNCT Biotech, Inc., dated 2023).
Numbering of substitutions follows the chain as printed. In names and notes the source's numbering stands.

B1: ICAM-1 Y512A mutant (receptor)
chain: QTSVSPSKVILPRGGSVLVTCSTSCDQPKLLGIETPLPKKELLLPGNNRKVYELSNVQEDSQPMCYSNCPDGQSTAKTFLTVYWTPERVELAPLPSWQPVGKNLTLRCQVEGGAPRANLTVVLLRGEKELKREPAVGEPAEVTTTVLVRRDHHGANFSCRTELDLRPQGLELFENTSAPYQLQTFVLPATPPQLVSPRVLEVDTQGTVVCSLDGLFPVSEAQVHLALGDQRLNPTVTYGNDSFSAKASVSVTAEDEGTQRLTCAVILGNQSQETLQTVTIYSFPAPNVILTKPEVSEGTEVTVKCEAHPRAKVTLNGVPAQPLGPRAQLLLKATPEDNGRSFSCSATLEVAGQLIHKNQTRELRVLYGPRLDERDCPGNWTWPENSQQTPMCQAWGNPLPELKCLKDGTFPLPIGESVTVTRDLEGTYLCRARSTQGEVTRKVTVNVLSPRYEIVIITVVAAAVIMGTAGLSTYLYNRQRKIKKARLQQAQKGTPMKPNTQATPP
notes: Mutant expressed in cells for immunoprecipitation
B2: ICAM-1 Y512D mutant (receptor)
chain: B1 chain with A485D
notes: as for B1

Target: T1, SRC (UniProt P12931 2-536, limits assumed)
T1 construct: whole, on cells; Endogenous intracellular protein in cell lysates or stained cells; also called p-SRC (phosphorylated form)
Test: immunoprecipitation with ICAM-1 Tyr512 mutants

Binder | binding result
B1 | binds
B2 | binds
